We go through two substances from article PMC2779157.

One test addresses IRF3 (UniProt Q14653). Nature of the test: Superdex-200 gel filtration after cell-free reaction. The following applies: reference: reaction without virus-activated mitochondria; sites S385,S386,S396. On the technique in general: In gel filtration, larger molecules generally elute earlier.
In test [1] the target is IRF3, activated in vitro by virus-activated mitochondria (P5) and cytosolic extract (UniProt Q14653). As to the kind of experiment: SEC.

Sequence of IRF3 (Q14653 whole entry, change not shown): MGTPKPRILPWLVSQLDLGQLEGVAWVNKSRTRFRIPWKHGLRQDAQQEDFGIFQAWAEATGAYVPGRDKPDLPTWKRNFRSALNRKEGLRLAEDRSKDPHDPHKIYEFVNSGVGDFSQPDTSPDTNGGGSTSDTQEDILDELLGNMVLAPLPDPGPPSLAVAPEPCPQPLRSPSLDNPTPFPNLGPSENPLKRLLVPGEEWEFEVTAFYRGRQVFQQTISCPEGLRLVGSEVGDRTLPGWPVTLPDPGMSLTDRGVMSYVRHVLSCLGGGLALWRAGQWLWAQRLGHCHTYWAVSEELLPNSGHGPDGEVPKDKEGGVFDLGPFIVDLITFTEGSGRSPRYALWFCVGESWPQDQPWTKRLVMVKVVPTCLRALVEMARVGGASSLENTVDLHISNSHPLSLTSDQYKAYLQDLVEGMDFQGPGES

In the case of “IRF3 (from UniProt Q14653) reaction with virus-activated mitochondria (P5)”, the “other: apparent molecular mass” value with IRF3 is “gained; reference 150”.

“IRF3, activated in vitro by virus-activated mitochondria (P5) and cytosolic extract (from UniProt Q14653 1-427) (natural protein)” gave a stoichiometry N in test [1] of 2.

In general, stoichiometry N refers to the number of molecules, sites or subunits per partner or assembly.
